Reference: US20230151111A1 (AKESO BIOPHARMA, published 2023)
Each block holds one binder with its values, some of them ahead of it.

Experiments:
[1] = biological target: T1, CD73 on cell membrane surface (MDA-MB-231, U87-MG) (human, UniProt P21589 27-549); test: flow cytometry, MDA-MB-231 cells
T1 construct: whole, on cells; also called NT5E
T1 sequence (looked up): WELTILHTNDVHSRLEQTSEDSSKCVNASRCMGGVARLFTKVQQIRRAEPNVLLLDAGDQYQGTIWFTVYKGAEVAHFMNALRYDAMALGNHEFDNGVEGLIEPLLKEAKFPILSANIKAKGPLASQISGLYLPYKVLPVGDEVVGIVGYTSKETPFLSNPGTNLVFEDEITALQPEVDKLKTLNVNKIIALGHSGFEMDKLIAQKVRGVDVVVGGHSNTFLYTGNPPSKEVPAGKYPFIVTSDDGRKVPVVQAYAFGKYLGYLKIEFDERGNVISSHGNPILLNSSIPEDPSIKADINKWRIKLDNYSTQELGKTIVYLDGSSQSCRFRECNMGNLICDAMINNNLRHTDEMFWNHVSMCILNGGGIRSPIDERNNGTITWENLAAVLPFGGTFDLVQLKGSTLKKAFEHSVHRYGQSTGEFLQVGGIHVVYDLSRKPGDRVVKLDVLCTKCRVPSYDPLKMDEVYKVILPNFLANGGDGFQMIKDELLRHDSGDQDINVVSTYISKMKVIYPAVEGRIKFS
Description: (§1) MDA-MB-231 cells in logarithmic phase were digested with conventional trypsin and transferred to a 1.5 mL centrifuge tube at 3×10⁵ cells/tube. 500 μL of PBSA was added, and the mixture was centrifuged at 5600 rpm for 5 min to remove the supernatant. […] The system was mixed gently and uniformly, and then was incubated on ice for 1 h. Then 500 μL of PBSA was added, and the mixture was centrifuged at 5600 rpm for 5 min to remove the supernatant. […] 500 μL of PBSA was added, and the mixture was centrifuged at 5600 rpm for 5 min to remove the supernatant. At last, 200 μL of PBSA was added to resuspend cell precipitates, and the mixture was transferred to a flow tube for FACSCalibur detection.

[2] = biological target: T2, PD-1 on 293T-PD1 cell surface (human, UniProt Q15116 25-288); test: flow cytometry, 293T-PD1 cells; antibody 0.05 nM
T2 construct: whole, on cells
T2 sequence (Q15116 25-288): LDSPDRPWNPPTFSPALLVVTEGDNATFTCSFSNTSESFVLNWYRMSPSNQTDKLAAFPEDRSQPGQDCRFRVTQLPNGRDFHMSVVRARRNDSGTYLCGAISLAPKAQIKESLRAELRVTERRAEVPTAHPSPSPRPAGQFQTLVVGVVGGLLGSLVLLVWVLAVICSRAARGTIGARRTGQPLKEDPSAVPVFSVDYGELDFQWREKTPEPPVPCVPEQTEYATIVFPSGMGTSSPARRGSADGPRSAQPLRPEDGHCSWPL
Description: as §1, with “500” for “MDA-MB-231 cells in logarithmic phase were digested with conventional trypsin and transferred to a 1.5 mL centrifuge tube at 3×10⁵ cells/tube. 500”

[3] = biological target: T1, CD73 on cell membrane surface …; test: flow cytometry, MDA-MB-231 cells; antibody 100.00 nM
Description: as §1

[4] = biological target: T2, PD-1 on 293T-PD1 cell surface; test: flow cytometry, 293T-PD1 cells; antibody 100.00 nM
Description: as §1, with “500” for “MDA-MB-231 cells in logarithmic phase were digested with conventional trypsin and transferred to a 1.5 mL centrifuge tube at 3×10⁵ cells/tube. 500”

[5] = biological target: T2, PD-1 on 293T-PD1 cell surface; test: flow cytometry, 293T-PD1 cells; antibody 33.33 nM
Description: as §1, with “500” for “MDA-MB-231 cells in logarithmic phase were digested with conventional trypsin and transferred to a 1.5 mL centrifuge tube at 3×10⁵ cells/tube. 500”

[6] = biological target: human PD-1-mFc-biotin (human, UniProt Q15116 25-170, limits assumed, biotin label, site not stated); test: competitive ELISA, blocking of PD-1-mFc-biotin binding to coated PD-L1-mFc
Chain of human PD-1-mFc-biotin (Q15116 other isoform, or with tags, fused parts or gaps limits assumed): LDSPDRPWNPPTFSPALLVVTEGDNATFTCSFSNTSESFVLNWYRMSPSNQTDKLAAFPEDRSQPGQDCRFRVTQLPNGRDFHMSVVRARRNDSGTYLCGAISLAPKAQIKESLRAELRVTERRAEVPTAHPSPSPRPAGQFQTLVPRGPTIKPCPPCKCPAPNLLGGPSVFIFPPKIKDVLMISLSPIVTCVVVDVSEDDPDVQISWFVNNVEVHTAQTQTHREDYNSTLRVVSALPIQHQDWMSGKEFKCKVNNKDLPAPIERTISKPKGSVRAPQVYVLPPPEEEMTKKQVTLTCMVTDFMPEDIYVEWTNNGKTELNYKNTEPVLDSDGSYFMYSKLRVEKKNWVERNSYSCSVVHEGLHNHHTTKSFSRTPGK
Description: After incubation, the microplate was blocked with a PBS solution containing 1% BSA at 37° C. for 2 h. After blocking, the plate was washed three times and dried. The antibody was serially diluted to 7 concentrations in a gradient ratio of 1:3 on a dilution plate with 10 μg/mL as the starting concentration, and a blank control was set. […] Then the mixture after reaction was added to the coated microplate, and the microplate was incubated for at 37° C. for 30 min. After incubation, the plate was washed three times with PBST and dried. SA-HRP (KPL, 14-30-00) working solution was added, and the plate was incubated at 37° C. for 30 min. After incubation, the plate was washed four times and patted dry. Then TMB (Neogen, 308177) was added in the dark for chromogenesis for 5 min, and a stop solution was added to terminate chromogenic reaction. Then the microplate was put into a microplate reader immediately, and the OD value of each well in the microplate was read at 450 nm. The data were analyzed and processed by SoftMax Pro 6.2.1.

[7] = biological target: T2, PD-1 on 293T-PD1 cell surface; test: flow cytometry, 293T-PD1 cells
Description: as §1, with “500” for “MDA-MB-231 cells in logarithmic phase were digested with conventional trypsin and transferred to a 1.5 mL centrifuge tube at 3×10⁵ cells/tube. 500”

[8] = biological target: T2, PD-1 on 293T-PD1 cell surface; test: flow cytometry, 293T-PD1 cells; antibody 0.14 nM
Description: as §1, with “500” for “MDA-MB-231 cells in logarithmic phase were digested with conventional trypsin and transferred to a 1.5 mL centrifuge tube at 3×10⁵ cells/tube. 500”

[9] = biological target: T3, PD-1-mFc (human, UniProt Q15116 25-170, limits assumed); test: ELISA, PD-1-mFc coated
T3 construct: also called human PD-1-mFc
T3 sequence (Q15116 other isoform, or with tags, fused parts or gaps limits assumed): as above
Description: A microplate was coated with PD-1-mFc at 0.5 μg/mL and incubated at 4° C. overnight. Then the microplate coated with antigens was washed once with PBST, and then blocked with a PBS solution containing 1% BSA as blocking solution at 37° C. for 2 h. After blocking, the microplate was washed 3 times with PBST. The microplate containing the test antibodies was incubated at 37° C. for 30 min, and then washed 3 times with PBST. […] After incubation, the plate was washed 4 times with PBST, TMB (Neogen, 308177) was added in the dark for chromogenesis for 5 min, and then a stop solution was added to terminate chromogenic reaction. The microplate was put into a microplate reader immediately, and the OD value of each well in the microplate was read at 450 nm. The data were analyzed and processed by SoftMax Pro 6.2.1,

[10] = biological target: T1, CD73 on cell membrane surface …; test: flow cytometry, MDA-MB-231 cells; antibody 0.41 nM
Description: as §1

[11] = biological target: T1, CD73 on cell membrane surface …; test: flow cytometry, MDA-MB-231 cells; antibody 0.05 nM
Description: as §1

[12] = biological target: T2, PD-1 on 293T-PD1 cell surface; test: flow cytometry, 293T-PD1 cells; antibody 3.70 nM
Description: as §1, with “500” for “MDA-MB-231 cells in logarithmic phase were digested with conventional trypsin and transferred to a 1.5 mL centrifuge tube at 3×10⁵ cells/tube. 500”

EC50 [1]: 1.38 nM | FACS signal [2]: 26.6 | FACS signal [3]: 706 | FACS signal [4]: 531 | FACS signal [5]: 479 | EC50 [6]: 1.11 nM | EC50 [7]: 1 nM | FACS signal [8]: 58.6 | EC50 [9]: 0.078 nM | FACS signal [10]: 76.8 | FACS signal [11]: 23.4 | FACS signal [12]: 531
B1: P1D7V01 (bispecific antibody, human IgG1, kappa)
heavy: not shown
light: DIQMTQSPSSMSASVGDRVTFTCRASQDINTYLSWFQQKPGKSPKTLIYRANRLVSGVPSRFSGSGSGQDYTLTISSLQPEDMATYYCLQYDEFPLTFGAGTKLELKRTVAAPSVFIFPPSDEQLKSGTASVVCLLNNFYPREAKVQWKVDNALQSGNSQESVTEQDSKDSTYSLSSTLTLSKADYEKHKVYACEVTHQGLSSPVTKSFNRGEC
notes: Morrison form IgG-scFv

EC50 [1]: 2.01 nM | FACS signal [2]: 24.1 | FACS signal [3]: 678 | FACS signal [4]: 343 | FACS signal [5]: 808 | EC50 [6]: 1.15 nM | EC50 [7]: 1.38 nM | FACS signal [8]: 49.2 | EC50 [9]: 0.075 nM | FACS signal [10]: 106 | FACS signal [11]: 17 | FACS signal [12]: 385
B2: P1D7V03 (bispecific antibody, human IgG1, kappa)
heavy: not shown
light: B1 light
notes: Morrison form IgG-scFv
